Tests used:
HLA-B*58:01 = assay: IEDB peptide-MHC binding, purified MHC/direct/fluorescence; filed as Kd, often an IC50 or EC50 that approximates it; ≥ and ≤ were set here for values at or beyond the usual limits of such assays; details: source organism: Mycobacterium tuberculosis variant bovis BCG str. Pasteur 1173P2
HLA-A*29:02 = assay: IEDB peptide-MHC binding, purified MHC/competitive/radioactivity; filed as Kd, often an IC50 or EC50 that approximates it; ≥ and ≤ were set here for values at or beyond the usual limits of such assays
HLA-A*30:02 = assay: as above
HLA-A*24:02 = assay: as above
HLA-A*26:01 = assay: as above
HLA-A*23:01 = assay: as above
HLA-A*01:01 [1] = assay: as above
HLA-A*11:01 [2] = assay: IEDB peptide-MHC binding, purified MHC/direct/fluorescence; filed as Kd, often an IC50 or EC50 that approximates it; ≥ and ≤ were set here for values at or beyond the usual limits of such assays
HLA-B*15:01 = assay: as above
HLA-A*03:01 [3] = assay: as above
HLA-A*69:01 = assay: as above
HLA-A*02:01 [4] = assay: as above; details: source organism: Bacillus licheniformis
HLA-A*31:01 [5] = assay: as above
HLA-A*01:01 [6] = assay: as above
HLA-B*27:05 = assay: as above; details: source organism: Homo sapiens
HLA-A*02:01 [7] = assay: IEDB peptide-MHC binding, purified MHC/competitive/fluorescence; filed as Kd, often an IC50 or EC50 that approximates it; ≥ and ≤ were set here for values at or beyond the usual limits of such assays
HLA-B*40:01 = assay: IEDB peptide-MHC binding, purified MHC/direct/fluorescence; filed as Kd, often an IC50 or EC50 that approximates it; ≥ and ≤ were set here for values at or beyond the usual limits of such assays; details: source organism: Mycobacterium tuberculosis
HLA-B*07:02 = assay: as above; details: source organism: Homo sapiens
HLA-A*30:01 = assay: IEDB peptide-MHC binding, purified MHC/competitive/radioactivity; filed as Kd, often an IC50 or EC50 that approximates it; ≥ and ≤ were set here for values at or beyond the usual limits of such assays; details: source organism: Dengue virus 3 Martinique/1243/1999
HLA-B*08:01 = assay: as above; details: source organism: Dengue virus 3 Martinique/1243/1999
HLA-A*11:01 [8] = assay: as above; details: source organism: Vaccinia virus WR
HLA-A*03:01 [9] = assay: as above; details: source organism: Vaccinia virus WR
HLA-A*33:01 = assay: as above
HLA-A*68:01 = assay: as above
HLA-A*31:01 [10] = assay: as above; details: source organism: Vaccinia virus WR
[11] = source organism: SARS coronavirus Tor2
[12] = source organism: Bacillus licheniformis
[13] = source organism: Mammarenavirus whitewaterense
[14] = source organism: Lassa virus Josiah
[15] = source organism: Xanthobacter autotrophicus
[16] = source organism: Mammarenavirus machupoense
[17] = source organism: Dengue virus 3 Martinique/1243/1999
[18] = source organism: Cryptosporidium parvum
[19] = source organism: Vaccinia virus WR
[20] = source organism: Mammarenavirus brazilense
[21] = source organism: Triticum aestivum
[22] = source organism: Burkholderia lata
[23] = source organism: Giardia intestinalis
[24] = source organism: Lassa virus GA391
[25] = source organism: Mycoplasmoides genitalium

Sequence	Kd (HLA-A*29:02; [11])	Kd (HLA-A*30:02; [11])	Kd (HLA-A*24:02; [11])	Kd (HLA-A*26:01; [11])	Kd (HLA-A*23:01; [11])	Kd (HLA-A*01:01 [1]; [11])	further results
AAAAPYAGW	–	–	–	–	–	–	Kd (HLA-B*58:01): 0.0271 µM
ACADGTRHTY	6.17 µM	0.0328 µM	≥ 70.3 µM	≥ 86.9 µM	≥ 70 µM	2.16 µM	–
ALMEITSRY	–	–	–	–	–	–	Kd (HLA-A*11:01 [2]; [12]): 0.605 µM; Kd (HLA-B*15:01; [12]): 0.0905 µM; Kd (HLA-A*03:01 [3]; [12]): 0.259 µM; Kd (HLA-A*69:01; [12]): 11.7 µM; Kd (HLA-A*02:01 [4]): 4.81 µM; Kd (HLA-A*31:01 [5]; [12]): 5.28 µM; Kd (HLA-A*01:01 [6]; [12]): 1.04 µM
ARLFGIRAK	–	–	–	–	–	–	Kd (HLA-A*11:01 [2]; source organism: Homo sapiens): 4.24 µM; Kd (HLA-B*27:05): 1.04 µM; Kd (HLA-A*03:01 [3]; source organism: Homo sapiens): 1.24 µM; Kd (HLA-A*31:01 [5]; source organism: Homo sapiens): 2.94 µM
ATDFKFAMY	–	–	–	–	–	–	Kd (HLA-A*11:01 [2]; source organism: Homo sapiens): 2.41 µM; Kd (HLA-B*15:01; source organism: Homo sapiens): 4.1 µM; Kd (HLA-A*03:01 [3]; source organism: Homo sapiens): 7.81 µM; Kd (HLA-A*01:01 [6]; source organism: Homo sapiens): 0.135 µM
DHHFTPQII	–	–	–	–	–	–	Kd (HLA-A*29:02; [13]): 2.97 µM; Kd (HLA-A*30:02; [13]): ≥ 50.8 µM; Kd (HLA-A*24:02; [13]): ≥ 43.9 µM; Kd (HLA-A*26:01; [13]): ≥ 77.9 µM; Kd (HLA-A*23:01; [13]): 11.2 µM; Kd (HLA-A*01:01 [1]; [13]): 0.0615 µM
DYLVSTQEF	0.259 µM	3.35 µM	≥ 43.9 µM	14.5 µM	18.8 µM	≥ 78.1 µM	–
ETLLPLTQY	0.262 µM	4.31 µM	≥ 77.6 µM	0.0435 µM	≥ 77.8 µM	≥ 33.1 µM	–
FIAQSKGLY	0.00494 µM	0.0245 µM	≥ 77.6 µM	0.0884 µM	≥ 77.8 µM	0.465 µM	–
FYLYLTFYF	≥ 75 µM	≥ 96.8 µM	≥ 77.6 µM	2.05 µM	≥ 29.3 µM	3.69 µM	–
GIDVTDLFA	–	–	–	–	–	–	Kd (HLA-A*29:02; [14]): ≥ 78.9 µM; Kd (HLA-A*30:02; [14]): ≥ 40.5 µM; Kd (HLA-A*24:02; [14]): ≥ 77.5 µM; Kd (HLA-A*26:01; [14]): ≥ 77.9 µM; Kd (HLA-A*23:01; [14]): ≥ 68.4 µM; Kd (HLA-A*01:01 [1]; [14]): 0.261 µM
GVWTRDGNR	–	–	–	–	–	–	Kd (HLA-A*03:01 [3]; [15]): ≥ 20 µM; Kd (HLA-A*31:01 [5]; [15]): 0.059 µM
ILNDEQLNL	–	–	–	–	–	–	Kd (HLA-A*02:01 [7]; source organism: Vaccinia virus Tian Tan): 0.0007 µM
ISAGFSLWIY	0.0023 µM	0.00964 µM	≥ 70.3 µM	1.09 µM	≥ 28.8 µM	0.0523 µM	–
KLGIGNSPV	–	–	–	–	–	–	Kd (HLA-A*02:01 [7]; source organism: Vaccinia virus Copenhagen): 0.006 µM
LCMLNNSFYY	–	–	–	–	–	–	Kd (HLA-A*29:02; [16]): 0.00543 µM; Kd (HLA-A*30:02; [16]): 0.0117 µM; Kd (HLA-A*24:02; [16]): ≥ 47.8 µM; Kd (HLA-A*26:01; [16]): ≥ 69.7 µM; Kd (HLA-A*23:01; [16]): ≥ 29.3 µM; Kd (HLA-A*01:01 [1]; [16]): 0.612 µM
LEEIGILLL	–	–	–	–	–	–	Kd (HLA-B*40:01): 0.011 µM
LPRWPPPQL	–	–	–	–	–	–	Kd (HLA-A*69:01; source organism: Homo sapiens): 5.5 µM; Kd (HLA-B*07:02): 0.164 µM
MFKKRNLTI	–	–	–	–	–	–	Kd (HLA-A*24:02; [17]): 0.158 µM; Kd (HLA-A*30:01): 0.143 µM; Kd (HLA-A*23:01; [17]): 0.475 µM; Kd (HLA-B*08:01): 0.0157 µM
MIRTWRQNK	–	–	–	–	–	–	Kd (HLA-A*03:01 [3]; [18]): 0.226 µM; Kd (HLA-A*31:01 [5]; [18]): 0.364 µM
MSFLEKDAPY	0.224 µM	0.00307 µM	≥ 70.3 µM	0.262 µM	≥ 70 µM	0.0644 µM	–
NMKWKFNAL	–	–	–	–	–	–	Kd (HLA-A*02:01 [7]; source organism: Campylobacter jejuni subsp. jejuni NCTC 11168 = ATCC 700819): ≥ 20 µM
NSGPDDQIGY	7.38 µM	6.79 µM	≥ 33.7 µM	8.42 µM	≥ 70 µM	1.01 µM	–

Sequence	Kd (HLA-A*29:02; [11])	Kd (HLA-A*30:02; [11])	Kd (HLA-A*24:02; [11])	Kd (HLA-A*26:01; [11])	Kd (HLA-A*23:01; [11])	Kd (HLA-A*01:01 [1]; [11])	further results
NTLISSDGAR	–	–	–	–	–	–	Kd (HLA-A*29:02; [19]): ≥ 46.9 µM; Kd (HLA-A*11:01 [8]): 0.359 µM; Kd (HLA-A*03:01 [9]): 2.35 µM; Kd (HLA-A*33:01; [19]): 0.286 µM; Kd (HLA-A*68:01; [19]): 0.00607 µM; Kd (HLA-A*31:01 [10]): 0.26 µM
NYFKKVDGI	2.53 µM	11.8 µM	≥ 20.3 µM	≥ 77.9 µM	11.6 µM	≥ 51.7 µM	–
PTLVPQEHY	10.9 µM	4.51 µM	≥ 77.6 µM	≥ 102 µM	≥ 77.8 µM	9.07 µM	–
QLFKPLTKK	–	–	–	–	–	–	Kd (HLA-A*31:01 [5]; source organism: SARS-CoV1): 0.981 µM; Kd (HLA-A*33:01; [11]): ≥ 77.7 µM; Kd (HLA-A*68:01; [11]): 16.8 µM
QMISSIDRFF	–	–	–	–	–	–	Kd (HLA-A*29:02; [20]): 1.85 µM; Kd (HLA-A*24:02; [20]): 4.69 µM; Kd (HLA-A*23:01; [20]): 0.758 µM
QYIKWPWYVW	3.88 µM	10.6 µM	0.00248 µM	≥ 69.7 µM	0.000784 µM	≥ 32 µM	–
QYPSGQGSF	–	–	–	–	–	–	Kd (HLA-A*29:02; [21]): 0.175 µM; Kd (HLA-A*30:02; [21]): 0.00117 µM; Kd (HLA-A*24:02; [21]): 3.39 µM; Kd (HLA-A*26:01; [21]): ≥ 49.3 µM; Kd (HLA-A*23:01; [21]): ≥ 35.7 µM; Kd (HLA-A*01:01 [1]; [21]): ≥ 61.5 µM
RMYIFFASF	2.1 µM	1.24 µM	0.106 µM	7.04 µM	0.0753 µM	≥ 20.9 µM	–
RYNLDPDSI	–	–	–	–	–	–	Kd (HLA-A*29:02; [20]): ≥ 34.1 µM; Kd (HLA-A*24:02; [20]): 17.7 µM; Kd (HLA-A*23:01; [20]): 7.49 µM
SIKRNYPYLF	–	–	–	–	–	–	Kd (HLA-A*29:02; [20]): 2.34 µM; Kd (HLA-A*24:02; [20]): 1.02 µM; Kd (HLA-A*23:01; [20]): 0.758 µM
SINDPRWGR	–	–	–	–	–	–	Kd (HLA-A*03:01 [3]; [22]): ≥ 20 µM; Kd (HLA-A*31:01 [5]; [22]): 0.0274 µM
SLRPNDIVY	–	–	–	–	–	–	Kd (HLA-A*11:01 [2]; [23]): 7.04 µM; Kd (HLA-B*15:01; [23]): 0.15 µM; Kd (HLA-A*03:01 [3]; [23]): 13.6 µM
SWFITQRNF	0.0162 µM	0.000215 µM	≥ 40 µM	≥ 77.9 µM	3.9 µM	≥ 78.1 µM	–
SYATHHDKF	≥ 22.6 µM	≥ 85.7 µM	≥ 105 µM	≥ 77.9 µM	≥ 90.7 µM	≥ 39.6 µM	–
TLAAAANSY	–	–	–	–	–	–	Kd (HLA-B*15:01; source organism: Mycobacterium tuberculosis C): 0.571 µM
TLFPGDDDL	–	–	–	–	–	–	Kd (HLA-A*02:01 [7]; [19]): 0.394 µM
TTTGIGYQPY	0.0088 µM	0.204 µM	≥ 70.3 µM	0.0568 µM	≥ 70 µM	0.126 µM	–
TYTEIEPKL	12.2 µM	≥ 78.9 µM	≥ 29.5 µM	≥ 77.9 µM	≥ 21.5 µM	≥ 78.1 µM	–
VTFQGKFKK	–	–	–	–	–	–	Kd (HLA-A*31:01 [5]; source organism: SARS-CoV1): 0.0703 µM; Kd (HLA-A*33:01; [11]): 8.58 µM; Kd (HLA-A*68:01; [11]): 0.0133 µM
VYHITVSQI	≥ 28.9 µM	≥ 81.1 µM	0.0266 µM	≥ 77.9 µM	0.098 µM	≥ 31.3 µM	–
YCNYSRYWYL	–	–	–	–	–	–	Kd (HLA-A*29:02; [24]): 8.34 µM; Kd (HLA-A*30:02; [24]): 11.9 µM; Kd (HLA-A*24:02; [24]): 3.28 µM; Kd (HLA-A*26:01; [24]): ≥ 69.7 µM; Kd (HLA-A*23:01; [24]): 1.15 µM; Kd (HLA-A*01:01 [1]; [24]): ≥ 70.4 µM
YSDIPRLKK	–	–	–	–	–	–	Kd (HLA-A*11:01 [2]; [25]): 0.0927 µM; Kd (HLA-A*03:01 [3]; [25]): 0.372 µM; Kd (HLA-A*69:01; [25]): 0.412 µM; Kd (HLA-A*31:01 [5]; [25]): 0.767 µM; Kd (HLA-A*01:01 [6]; [25]): 1.64 µM
YSELRPDTRY	0.14 µM	0.165 µM	≥ 36 µM	12 µM	≥ 70 µM	0.00622 µM	–

Reference: the Immune Epitope Database (IEDB)
